Measurements published in patent publication US9340582B2, “Bioconjugates of synthetic apelin polypeptides” (NOVARTIS AG, priority 2013, dated 2016).
Bridge positions count the residues as written; N and C are the ends. Square brackets hold non-standard residues; d marks the D form. * marks the point of attachment. Propanoyl(3-maleimido) = O=C1C=CC(=O)N1CCC(=O)*; Nle = CCCC[C@H](N)C(=O)O; AEEA = NCCOCCOCC(=O)O

Experiments:
hAPJ = target: T1, hAPJ (Homo sapiens, UniProt P35414); test: hAPJ Calcium Flux Assay; format: cell-based; settings: Chem-5 APJ stable cells, FLIPR calcium flux; read-out: hAPJ Ca^2+ Flux EC50
T1 sequence (P35414 1-380): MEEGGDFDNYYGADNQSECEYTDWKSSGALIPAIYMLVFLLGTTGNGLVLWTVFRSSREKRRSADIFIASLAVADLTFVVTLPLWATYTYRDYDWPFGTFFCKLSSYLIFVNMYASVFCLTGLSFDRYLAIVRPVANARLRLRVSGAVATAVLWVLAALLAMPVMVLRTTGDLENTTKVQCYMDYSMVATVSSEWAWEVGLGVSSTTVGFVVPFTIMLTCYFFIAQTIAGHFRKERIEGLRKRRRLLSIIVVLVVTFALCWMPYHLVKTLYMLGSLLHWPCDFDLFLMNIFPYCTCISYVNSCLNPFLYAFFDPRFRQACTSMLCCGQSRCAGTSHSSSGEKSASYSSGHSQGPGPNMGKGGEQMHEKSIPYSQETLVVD
Description: Chem-5 APJ stable cells (Millipore #HTS068C) were plated in 384-well format with 10,000 cells/well in 25 ul growth media, then grown 24 hours in a 37° C. tissue culture incubator. One hour before the assay, 25 ul/well FLIPR Calcium 4 dye (Molecular Devices R8142) with 2.5 mM probenecid was added, and cells were incubated one hour in a 37° C. tissue culture incubator. Bioconjugates were solubilized in HBSS, HEPES & 0.1% BSA buffer, and serially-diluted 10-fold, from 50 uM to 5 pM, in triplicate. FLIPR Tetra was used to add bioconjugates to the cells with dye (1:5, for final bioconjugate concentrations ranging from 10 uM to 1 pM). FLIPR dye inside the cells emitted fluorescence after binding to calcium, while fluorescence from outside the cells was masked. […] Readings were done for 3 minutes total, beginning 10 seconds before the bioconjugate addition. Maximum-minimum values were calculated and plotted for each bioconjugate concentration, and GraphPad prism software was used to calculate EC50 values at the curve inflection points, for calcium flux stimulation by bioconjugates.

[1] = Surrogate activity-based plasma stability assay; settings: for Surrogate activity-based Plasma stability t½: Table 2
[2] = Plasma Stability Assay (LC-MS); format: in vitro ADME; settings: Table 3, rat plasma, 37° C.
Description: • Materials: • Working solution: 1 mg/mL test article is prepared in Milli-Q water • Extraction solution: Methanol:Acetonitrile:Water (1:1:1) with 0.1% Formic Acid and 400 ng/mL Glyburide. • Plasma: Male Sprague-Dawley rat plasma (with sodium heparin), purchased from Bioreclamation LLC (Liverpool, N.Y.). • Whole blood: Male Sprague Dawley whole blood (with sodium heparin), purchased from Bioreclamation LLC (Liverpool, N.Y.) • Lung homogenate: Male rat Sprague Dawley lung was purchased from Bioreclamation LLC (Liverpool, N.Y.). The lung was homogenized using polytron homogenizer after addition of 5× volume of 1×PBS. The homogenate was centrifuged at 9000 rpm for 10 min at 4° C. The supernatant was centrifuged again at 3000 rpm for 30 min to make a clear supernatant. Protein concentration was determined using a commercial kit (Pierce, Thermo Scientific). Sample Preparation Procedure: (peptides)
Test article was prepared in one of the following biological matrices: heparinized rat plasma, heparinized rat whole blood or lung homogenate. The plasma and whole blood sample was prepared at 5000 ng/mL by adding 5 uL of 1 mg/mL Working solution to 995 uL of rat plasma or whole blood. […]

Row | EC50 (hAPJ) | Substance | Surrogate activity-based Plasma stability t½ [1] | Plasma stability t½ [2] | Surrogate Activity based Plasma stability t½ ([1]; Table 3)
1 | 52 nM | Albumin-MPA-NHCH2CH2CH2−OCH2CH2OCH2CH2O-CH2CH2CH2NH-C(O)CH2CH2C═O-A-R-P-R-L-S-H-K-G-P-Nle-P-F-OH (ARPRLSHKGPLPF; albumin-MPA linker conjugate; Nle residue) [Example 3] | 0.405 h |  | 
2 |  | Albumin-MPA-O2Oc-O2Oc-O2Oc-O2Oc-Q-R-P-R-L-C*-H-F-G-P-Nle-C*-f-OH [Example 1] | >16.67 h |  | 
3 | 92.4 nM | Albumin-TPA-O2Oc-O2Oc-O2Oc-O2Oc-Q-R-P-R-L-C*-H-F-G-P-Nle-C*-f-OH [Example 2] | >16.67 h | ~24 h | >16.67 h
4 |  | Example 4: Fc-Apelin fusion SEQ ID NO: 98; linker GGGGSGGGGS, polypeptide QRPRLSHKGPMPF | 3.53 h |  | 
5 |  | Example 5: Fc-Apelin fusion SEQ ID NO: 99; linker GGGGSGGGGSGGGGS, polypeptide QRPRLSHKGPMPF | 5.57 h |  | 

Row | Substance | EC50 (hAPJ) | Surrogate activity-based Plasma stability t½ [1] | Plasma stability t½ [2] | Surrogate Activity based Plasma stability t½ ([1]; Table 3)
6 | Albumin-MPA-O2Oc-O2Oc-O2Oc-O2Oc-Q-R-P-R-L-C*-H-F-G-P-Nle-C*-f-OH ({albumin-Propanoyl(3-maleimido)}-[AEEA][AEEA][AEEA][AEEA]QRPRLCHFGP[Nle]C[dF]-OH; disulfide 10-16; also: albumin conjugate) [Example 1] | 47.2 nM |  |  | 
